Sequences and labels used below:
B1: CPEB3 Ribozyme (parent)
chain: UAACAGGGGGCCACAGCAGAAGCGUUCACGUCGCAGCCCCUGUCAGAUUCUGGUGAAUCUGCGAAUUCUGCUGUAUAUCUC

The data set covers variants of B1. In words: self-cleavage, relative activity (ratio to wild type); higher = more cleavage; in vitro, sequencing. In outline:
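Relative activity was defined as the cleaved/total read fraction for a variant divided by the same fraction for the unmutated ribozyme. CPEB3 self-cleaving ribozyme libraries were made by rounds of error-prone PCR, barcoded, and transcribed in vitro with T7 RNA polymerase for 5 hours at 37°C, and cleavage ran through transcription plus a 15 min DNase I step before EDTA. Illumina sequencing of template-switched reverse transcripts gave the reads, and DNA sequencing mapped the barcodes. Averages come from three batches, using variants with at least 5 reads.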
Consider A15C A45G, for which the self-cleavage was determined as 0.88. Next, A15C A45U: 0.45.

For the variant A15C A45C, the self-cleavage was 0.37. Turning to A15C A35G, the self-cleavage was 1.08.

Regarding A15U C38G, the self-cleavage came to 0.25.

Regarding A15U C38U, the self-cleavage was 0.67. The value for A15U C38A was 0.2; that for C14U G36A was 0.32. Next, A15G G53A: 1.02; A15G G53C: 1.05. The value for A15G G53U was 1.02. With C14U U72C, the self-cleavage was 1.21. The value for C14U G46U was 0.27.

As to C14U G46A, the self-cleavage stood at 0.12. As for A15C C34U, the self-cleavage came out at 0.29. The value for A15G U78G was 1.06; that for A15G U78C was 0.78; that for A15G U78A was 0.96.

On to C14U U80C, for which the self-cleavage amounted to 1.33.

Consider A15G U69A, for which the self-cleavage was determined as 0.35. The value for A15G U69G was 0.32; that for A15G U69C was 0.3; that for A15U A20U was 0.27. For the variant A15U A20G, the self-cleavage is 0.41. Next, A15U A77U: 0.71; A15U A77C: 0.41; A15U A77G: 0.87. The value for A15G U72G was 0.46. As to A15G U72C, the self-cleavage stood at 1.16. Next, A15G U72A: 0.48. On to A15G G22A, for which the self-cleavage was 0.22. On to A15G G22U, for which the self-cleavage was found to be 0.46.

Turning to A15C U78C, the self-cleavage came to 0.87.

Take A15C U78A: the self-cleavage came out at 1.05. The value for A15G C29G was 0.16; that for A15G C29U was 0.41; that for A15G C29A was 0.16. Take A15U A21C: the self-cleavage was found to be 0.36. For A15U A21G, the self-cleavage is 0.35. Next, A15U A21U: 0.19. The value for A15C U43G was 0.25; that for A15C U43C was 0.46; that for C14U G52C was 1.23. The value for C14U G61C was 0.35. Take A15G A35C: the self-cleavage is 0.45. The value for A15G A35G was 0.68; that for A15G A35U was 0.53. On to A15G C17U, for which the self-cleavage worked out at 0.48. The value for A15G C17A was 0.34. Next, A15G U74G: 1.14. The value for A15G U74A was 1.14; that for A15G U74C was 1.21; that for A15C A64G was 0.62. Consider A15G A28U, for which the self-cleavage came to 0.39.

As for A15G A28C, the self-cleavage amounted to 0.53. The value for A15G A28G was 0.49; that for A15C U74C was 1.16; that for C14U U54C was 1.25. Regarding C14U U54G, the self-cleavage is 1.16.

As to A15G C81A, the self-cleavage was 1.16. Next, A15G C81U: 1.02; A15G C81G: 1.09. Consider A15C U26C, for which the self-cleavage was 0.36. The value for A15C U49C was 0.35; that for A15C U49A was 0.7; that for A15G G19C was 0.49. Next, A15G G19U: 0.28; A15G C23A: 0.19. The value for A15G C23U was 0.29; that for A15G C23G was 0.42; that for A15G C39U was 0.98. As for A15G C39A, the self-cleavage amounted to 0.32.

Turning to A15G C39G, the self-cleavage turned out to be 0.29. Next, A15G U26A: 0.71; A15G U26G: 0.55. Next, A15G U26C: 0.41; A15G G70A: 0.29. On to A15G G70C, for which the self-cleavage was 0.11.

In the case of A15G G70U, the self-cleavage was 0.18. For A15U A65U, the self-cleavage turned out to be 0.37. Next, A15U A65G: 0.29; A15G U51C: 0.74.

A15G U51G: the self-cleavage came to 0.62.

As for A15G U51A, the self-cleavage is 0.9. Next, A15G G42C: 0.25.

A15G G42A: the self-cleavage stood at 0.15. The value for A15C U31A was 0.42. Take A15C U31C: the self-cleavage is 0.6. Take A15U A18U: the self-cleavage turned out to be 0.25. As for A15U A18C, the self-cleavage worked out at 0.35. Next, A15U A18G: 0.29. For C14U G63A, the self-cleavage was 1.26. Turning to A15G U67C, the self-cleavage worked out at 0.24.

A15G U67A: the self-cleavage was 0.35. Next, A15G U67G: 0.4; A15G U76C: 0.89; A15G U76A: 0.94. With A15C, the self-cleavage amounted to 0.92. The value for A15U was 0.76; that for A15G was 0.92. Turning to A15G C40U, the self-cleavage was determined as 0.67. The value for A15G C40G was 0.28. A15G C40A: the self-cleavage was determined as 0.41. Next, A15G U58C: 0.44. On to A15G U58A, for which the self-cleavage was 0.32. Next, A15G G24U: 0.12; A15G G24A: 0.39. Next, A15U A57U: 0.15. The value for A15U A57G was 0.66. In the case of A15G U66A, the self-cleavage came to 0.45.

With A15G U66C, the self-cleavage amounted to 0.37. The value for A15G U66G was 0.35; that for A15G C71U was 0.28. With A15U C27U, the self-cleavage is 0.19. For A15C U67C, the self-cleavage is 0.18.

Consider A15C U60C, for which the self-cleavage was found to be 0.28. Next, A15G A45G: 0.66; A15G A45U: 0.44. A15G A45C: the self-cleavage was found to be 0.31. Take A15U C39A: the self-cleavage was 0.24.

With A15U C39U, the self-cleavage was 0.65. As to A15U C34G, the self-cleavage is 0.27. As to A15U C34U, the self-cleavage turned out to be 0.29. For the variant A15U C34A, the self-cleavage was determined as 0.37.

As for C14U U74G, the self-cleavage was found to be 1.27. Next, A15G U25G: 0.4; A15G U25C: 0.28; A15G U25A: 0.28. Next, A15G U43C: 0.47; A15G U43G: 0.28; A15G U43A: 1.05. With A15C A20U, the self-cleavage stood at 0.35.

A15C A20G: the self-cleavage is 0.66. The value for A15C A20C was 0.19; that for C14U U76C was 1.15. Next, A15U C44G: 0.31; A15U C44A: 0.32; A15G U80G: 0.86. Consider A15G U80A, for which the self-cleavage was 1.07.

Take A15G U80C: the self-cleavage was found to be 1.06.

Take A15G A47G: the self-cleavage was found to be 0.87. The value for A15G A47U was 0.64. A15U A64G: the self-cleavage worked out at 0.54. The value for A15U A64U was 0.37; that for A15G G46A was 0.38.

In the case of A15G G46U, the self-cleavage is 0.18. Take A15G U60G: the self-cleavage is 0.34.

As to A15G U60C, the self-cleavage was found to be 0.33. As for A15G U60A, the self-cleavage was found to be 0.35. C14U U49C: the self-cleavage amounted to 0.33. The value for C14U U43A was 1.18.

Turning to C14U U43G, the self-cleavage worked out at 0.27. The value for C14U U43C was 1.08; that for C14U U66C was 0.8; that for C14U U66A was 0.52.

As to A15C A47U, the self-cleavage is 0.17. The value for A15C A47G was 0.85. The value for C14U G22C was 0.18. Next, C14U G22A: 0.41; A15G U48C: 0.46; A15G U48G: 0.72. In the case of A15G U48A, the self-cleavage was found to be 0.35. Consider C14U U41A, for which the self-cleavage stood at 0.24. The value for C14U U41C was 1.2; that for A15G C32G was 0.11.

As to A15G C32A, the self-cleavage stood at 0.24. The value for A15G C32U was 0.19.

Values taken from the RNAGym collection of RNA variant scans (doi:10.1093/nar/gkz1192).
